Test results taken from the supplement of paper PMC6379048.

How the values were obtained:
Experiment in all cases: EC50 of free RNA motif oligo competing protein binding to immobilised probe
[1] = molecular target: T1, TIA1 (UniProt P31483)
T1 sequence: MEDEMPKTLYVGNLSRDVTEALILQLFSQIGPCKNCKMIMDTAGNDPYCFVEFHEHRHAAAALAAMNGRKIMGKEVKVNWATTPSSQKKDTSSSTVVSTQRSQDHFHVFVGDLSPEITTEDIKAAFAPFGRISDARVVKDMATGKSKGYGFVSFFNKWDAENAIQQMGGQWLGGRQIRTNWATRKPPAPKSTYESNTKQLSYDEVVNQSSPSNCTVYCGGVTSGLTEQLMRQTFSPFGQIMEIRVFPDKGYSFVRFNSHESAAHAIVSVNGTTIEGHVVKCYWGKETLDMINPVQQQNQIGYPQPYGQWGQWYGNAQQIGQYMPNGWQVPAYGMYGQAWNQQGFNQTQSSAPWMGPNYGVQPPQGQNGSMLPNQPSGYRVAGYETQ
Procedure, shortened: (§1)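 HEK293-FT lysate (2.5 mg protein/well) was pre-incubated 1 h at 4°C with free RNA oligos (0 nM to 30 μM), then 30 min at 4°C with the same 5′-amino-C6 oligos coupled to NHS-Sepharose beads. Bound proteins were quantified by label-free LC-MS/MS in three biological replicates and two independent experiments, and normalised to the water control. EC50 came from a four-parameter log-logistic fit; Kd is EC50 times a protein-dependent depletion factor.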

[2] = molecular target: SF3B6 (UniProt Q9Y3B4)
Procedure, shortened: as §1

[3] = molecular target: T2, PARP12 (UniProt Q9H0J9)
T2 sequence: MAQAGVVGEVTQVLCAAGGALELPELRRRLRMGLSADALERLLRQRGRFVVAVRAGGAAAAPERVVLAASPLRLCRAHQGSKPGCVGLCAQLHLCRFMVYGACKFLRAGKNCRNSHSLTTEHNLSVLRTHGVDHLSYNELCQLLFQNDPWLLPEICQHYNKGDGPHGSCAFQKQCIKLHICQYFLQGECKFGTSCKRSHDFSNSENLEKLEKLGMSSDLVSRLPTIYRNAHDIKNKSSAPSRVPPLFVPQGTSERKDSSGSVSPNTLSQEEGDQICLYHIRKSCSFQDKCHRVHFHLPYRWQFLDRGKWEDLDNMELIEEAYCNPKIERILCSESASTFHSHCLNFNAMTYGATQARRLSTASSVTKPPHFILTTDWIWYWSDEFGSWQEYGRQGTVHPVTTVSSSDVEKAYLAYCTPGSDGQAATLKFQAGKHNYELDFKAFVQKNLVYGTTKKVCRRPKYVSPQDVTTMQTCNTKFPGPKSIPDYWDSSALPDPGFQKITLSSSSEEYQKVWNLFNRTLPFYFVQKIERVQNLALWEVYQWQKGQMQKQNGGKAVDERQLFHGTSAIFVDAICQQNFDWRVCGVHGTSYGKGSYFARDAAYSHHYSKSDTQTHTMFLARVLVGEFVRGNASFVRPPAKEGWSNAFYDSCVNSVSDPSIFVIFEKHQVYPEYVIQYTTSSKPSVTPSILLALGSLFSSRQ
Procedure, shortened: as §1

[4] = molecular target: MRPL14 (UniProt Q6P1L8)
Procedure, shortened: as §1

[5] = molecular target: MRPL53 (UniProt Q96EL3)
Procedure, shortened: as §1

[6] = molecular target: RPS19 (UniProt P39019)
Procedure, shortened: as §1

[7] = molecular target: RPS10 (UniProt P46783)
Procedure, shortened: as §1

[8] = molecular target: MRPL49 (UniProt Q13405)
Procedure, shortened: as §1

[9] = molecular target: IGF2BP3 (UniProt O00425)
Procedure, shortened: as §1

[10] = molecular target: T3, FASTKD2 (UniProt Q9NYY8)
T3 sequence: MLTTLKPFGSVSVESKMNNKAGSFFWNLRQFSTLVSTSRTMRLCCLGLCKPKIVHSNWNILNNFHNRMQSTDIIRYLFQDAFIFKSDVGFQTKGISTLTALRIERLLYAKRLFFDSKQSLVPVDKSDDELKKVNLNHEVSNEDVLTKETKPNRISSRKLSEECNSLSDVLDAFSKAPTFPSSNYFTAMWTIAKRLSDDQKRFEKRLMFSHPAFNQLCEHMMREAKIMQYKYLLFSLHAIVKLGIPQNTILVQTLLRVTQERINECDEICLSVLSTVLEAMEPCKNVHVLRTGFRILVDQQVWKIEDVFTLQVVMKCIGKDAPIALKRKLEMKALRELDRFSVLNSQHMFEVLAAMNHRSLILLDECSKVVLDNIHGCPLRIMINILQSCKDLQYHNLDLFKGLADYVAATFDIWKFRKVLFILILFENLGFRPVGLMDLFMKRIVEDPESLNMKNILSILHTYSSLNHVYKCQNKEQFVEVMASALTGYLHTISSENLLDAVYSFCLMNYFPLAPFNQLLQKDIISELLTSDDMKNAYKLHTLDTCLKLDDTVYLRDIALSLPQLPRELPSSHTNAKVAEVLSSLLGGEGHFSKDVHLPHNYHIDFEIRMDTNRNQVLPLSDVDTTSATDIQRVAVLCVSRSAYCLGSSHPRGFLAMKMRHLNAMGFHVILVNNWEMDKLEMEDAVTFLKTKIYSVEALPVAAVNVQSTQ
Procedure, shortened: as §1

[11] = molecular target: SKIV2L (UniProt Q15477)
Procedure, shortened: as §1

[12] = molecular target: MRPS23 (UniProt Q9Y3D9)
Procedure, shortened: as §1

Chain of IGF2BP3 (O00425 whole entry): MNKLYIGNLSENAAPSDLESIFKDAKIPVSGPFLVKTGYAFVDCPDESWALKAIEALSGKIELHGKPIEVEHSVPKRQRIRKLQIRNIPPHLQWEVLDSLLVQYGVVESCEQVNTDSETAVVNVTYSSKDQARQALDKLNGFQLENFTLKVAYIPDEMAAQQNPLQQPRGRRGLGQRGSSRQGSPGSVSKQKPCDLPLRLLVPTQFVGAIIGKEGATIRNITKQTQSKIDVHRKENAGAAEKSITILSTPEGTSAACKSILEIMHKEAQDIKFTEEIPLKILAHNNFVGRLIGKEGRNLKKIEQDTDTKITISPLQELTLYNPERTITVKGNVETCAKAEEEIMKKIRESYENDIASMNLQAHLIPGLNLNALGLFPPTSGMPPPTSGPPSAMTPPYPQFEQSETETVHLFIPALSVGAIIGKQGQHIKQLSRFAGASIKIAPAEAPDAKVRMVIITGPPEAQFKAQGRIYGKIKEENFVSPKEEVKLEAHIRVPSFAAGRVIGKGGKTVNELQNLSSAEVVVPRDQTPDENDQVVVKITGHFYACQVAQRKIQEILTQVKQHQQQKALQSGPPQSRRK
Chain of SKIV2L (Q15477 whole entry): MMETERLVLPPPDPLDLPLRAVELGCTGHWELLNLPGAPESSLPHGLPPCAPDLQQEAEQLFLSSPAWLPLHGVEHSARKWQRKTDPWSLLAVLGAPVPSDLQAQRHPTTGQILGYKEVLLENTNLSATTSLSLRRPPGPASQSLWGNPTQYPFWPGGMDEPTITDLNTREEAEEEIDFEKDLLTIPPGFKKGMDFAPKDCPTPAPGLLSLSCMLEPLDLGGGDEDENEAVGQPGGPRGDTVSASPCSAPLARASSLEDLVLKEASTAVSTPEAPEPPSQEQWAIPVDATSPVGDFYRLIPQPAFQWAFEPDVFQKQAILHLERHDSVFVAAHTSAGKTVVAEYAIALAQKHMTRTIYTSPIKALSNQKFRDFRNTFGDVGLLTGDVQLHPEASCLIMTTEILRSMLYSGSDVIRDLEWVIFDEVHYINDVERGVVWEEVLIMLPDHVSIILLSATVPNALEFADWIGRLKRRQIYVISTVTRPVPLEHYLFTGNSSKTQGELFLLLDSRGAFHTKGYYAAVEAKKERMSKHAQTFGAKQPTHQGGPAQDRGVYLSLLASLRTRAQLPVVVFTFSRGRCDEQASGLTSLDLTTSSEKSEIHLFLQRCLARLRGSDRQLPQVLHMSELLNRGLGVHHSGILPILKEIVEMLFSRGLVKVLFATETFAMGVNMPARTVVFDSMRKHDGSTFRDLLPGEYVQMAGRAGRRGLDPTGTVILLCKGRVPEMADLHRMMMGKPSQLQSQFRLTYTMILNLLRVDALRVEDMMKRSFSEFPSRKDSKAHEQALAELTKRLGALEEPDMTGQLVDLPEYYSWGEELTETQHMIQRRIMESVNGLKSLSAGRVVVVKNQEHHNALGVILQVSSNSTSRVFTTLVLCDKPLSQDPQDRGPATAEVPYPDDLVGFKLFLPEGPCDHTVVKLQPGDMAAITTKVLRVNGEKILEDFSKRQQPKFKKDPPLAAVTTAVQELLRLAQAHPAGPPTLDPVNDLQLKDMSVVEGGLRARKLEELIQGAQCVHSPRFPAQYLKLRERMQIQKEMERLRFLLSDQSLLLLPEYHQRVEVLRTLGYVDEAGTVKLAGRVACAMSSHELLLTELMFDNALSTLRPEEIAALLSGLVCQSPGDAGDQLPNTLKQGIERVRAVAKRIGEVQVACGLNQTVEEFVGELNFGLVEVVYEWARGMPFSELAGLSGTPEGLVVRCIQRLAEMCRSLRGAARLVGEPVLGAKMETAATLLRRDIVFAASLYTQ
Chain of SF3B6 (Q9Y3B4 whole entry): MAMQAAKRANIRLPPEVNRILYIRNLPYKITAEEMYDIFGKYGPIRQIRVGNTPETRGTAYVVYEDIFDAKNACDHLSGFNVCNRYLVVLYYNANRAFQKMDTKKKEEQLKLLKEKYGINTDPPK

AAUAAA
EC50 [1]: 2.11 µM | EC50 [2]: 4.62 µM | EC50 [3]: 11.2 µM

CUGUCCU
EC50 [4]: 0.104 µM | EC50 [5]: 0.103 µM | EC50 [6]: 0.176 µM | EC50 [7]: 0.226 µM | EC50 [8]: 0.109 µM | EC50 [9]: 3.77 µM

UAUUUAU
EC50 [10]: 7.86 µM | EC50 [11]: 1.95 µM | EC50 [12]: 0.04 µM
